Measurements published in patent US10562947B2, “Compositions and methods for preventing or treating diseases, conditions or processes characterized by aberrant fibroblast proliferation and extracellular matrix deposition” (MOERAE MATRIX, INC., priority 2011, dated 2020).

Columns and labels:
Experiment in all cases: Kinase Profiling Assay
Type in all cases: biochemical
Settings in all cases: 100 μM peptide
LKB1(h) = target: T1, LKB1(h) (Homo sapiens, UniProt Q15831)
T1 sequence (Q15831 1-433): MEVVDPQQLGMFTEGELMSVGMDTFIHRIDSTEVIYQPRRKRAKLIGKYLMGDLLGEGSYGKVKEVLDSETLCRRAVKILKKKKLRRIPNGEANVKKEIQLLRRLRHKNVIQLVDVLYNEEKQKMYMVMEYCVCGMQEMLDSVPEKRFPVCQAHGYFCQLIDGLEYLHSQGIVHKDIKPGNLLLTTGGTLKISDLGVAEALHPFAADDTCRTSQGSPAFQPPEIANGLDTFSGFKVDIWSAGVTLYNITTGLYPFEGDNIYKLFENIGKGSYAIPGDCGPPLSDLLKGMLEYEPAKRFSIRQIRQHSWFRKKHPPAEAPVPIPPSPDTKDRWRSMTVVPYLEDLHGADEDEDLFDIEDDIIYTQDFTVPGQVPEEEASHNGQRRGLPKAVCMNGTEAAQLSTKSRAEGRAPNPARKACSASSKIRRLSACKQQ
T1 sequence (Q7RTN6 1-431 partner): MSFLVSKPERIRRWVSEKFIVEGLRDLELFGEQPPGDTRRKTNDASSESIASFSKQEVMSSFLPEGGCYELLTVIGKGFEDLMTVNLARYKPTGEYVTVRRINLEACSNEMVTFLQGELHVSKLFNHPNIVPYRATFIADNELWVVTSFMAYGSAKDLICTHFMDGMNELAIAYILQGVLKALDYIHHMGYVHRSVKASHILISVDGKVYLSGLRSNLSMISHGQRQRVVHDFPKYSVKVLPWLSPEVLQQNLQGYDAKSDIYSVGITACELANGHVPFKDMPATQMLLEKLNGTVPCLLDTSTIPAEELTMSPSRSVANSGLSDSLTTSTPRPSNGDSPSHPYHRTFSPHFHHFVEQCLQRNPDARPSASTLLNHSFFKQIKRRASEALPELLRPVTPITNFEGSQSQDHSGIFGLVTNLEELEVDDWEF
T1 sequence (Q9Y376 1-341 partner): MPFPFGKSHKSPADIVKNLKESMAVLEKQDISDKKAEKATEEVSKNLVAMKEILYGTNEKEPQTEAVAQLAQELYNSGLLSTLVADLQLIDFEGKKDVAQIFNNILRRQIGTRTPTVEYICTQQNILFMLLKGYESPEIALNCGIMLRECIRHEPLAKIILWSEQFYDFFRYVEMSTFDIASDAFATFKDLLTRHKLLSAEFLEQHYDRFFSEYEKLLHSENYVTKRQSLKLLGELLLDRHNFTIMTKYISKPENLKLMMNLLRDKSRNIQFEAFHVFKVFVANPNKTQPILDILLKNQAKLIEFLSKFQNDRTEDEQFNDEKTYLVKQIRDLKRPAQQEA
Method in brief: (§1)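 Each kinase in a 266-member human panel is assayed, in duplicate, for activity in the presence of MK2 inhibitory peptides to gauge specificity.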

Txk(h) = target: T2, Txk(h) (Homo sapiens, UniProt P42681)
T2 sequence (P42681 1-527): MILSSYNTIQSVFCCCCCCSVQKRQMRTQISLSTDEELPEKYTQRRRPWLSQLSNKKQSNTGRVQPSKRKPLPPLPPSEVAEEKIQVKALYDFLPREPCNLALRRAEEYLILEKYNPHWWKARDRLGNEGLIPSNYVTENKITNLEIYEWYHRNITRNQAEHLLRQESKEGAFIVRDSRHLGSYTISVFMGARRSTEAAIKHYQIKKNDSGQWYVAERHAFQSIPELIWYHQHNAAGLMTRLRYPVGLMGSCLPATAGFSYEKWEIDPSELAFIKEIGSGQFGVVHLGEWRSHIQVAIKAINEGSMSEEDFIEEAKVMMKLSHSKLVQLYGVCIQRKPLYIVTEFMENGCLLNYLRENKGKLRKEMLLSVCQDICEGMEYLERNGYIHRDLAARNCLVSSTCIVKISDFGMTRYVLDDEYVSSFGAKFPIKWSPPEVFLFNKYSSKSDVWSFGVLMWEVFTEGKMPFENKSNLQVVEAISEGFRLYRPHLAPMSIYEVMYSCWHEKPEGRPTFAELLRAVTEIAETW
Method in brief: as §1

NEK7(h) = NEK7(h) (Homo sapiens, UniProt Q8TDX7)
Method in brief: as §1

PKCγ(h) = PKCγ(h) (Homo sapiens, UniProt P05129)
Method in brief: as §1

EphB4(h) = target: T3, EphB4(h) (Homo sapiens, UniProt P54760)
T3 sequence (P54760 16-987): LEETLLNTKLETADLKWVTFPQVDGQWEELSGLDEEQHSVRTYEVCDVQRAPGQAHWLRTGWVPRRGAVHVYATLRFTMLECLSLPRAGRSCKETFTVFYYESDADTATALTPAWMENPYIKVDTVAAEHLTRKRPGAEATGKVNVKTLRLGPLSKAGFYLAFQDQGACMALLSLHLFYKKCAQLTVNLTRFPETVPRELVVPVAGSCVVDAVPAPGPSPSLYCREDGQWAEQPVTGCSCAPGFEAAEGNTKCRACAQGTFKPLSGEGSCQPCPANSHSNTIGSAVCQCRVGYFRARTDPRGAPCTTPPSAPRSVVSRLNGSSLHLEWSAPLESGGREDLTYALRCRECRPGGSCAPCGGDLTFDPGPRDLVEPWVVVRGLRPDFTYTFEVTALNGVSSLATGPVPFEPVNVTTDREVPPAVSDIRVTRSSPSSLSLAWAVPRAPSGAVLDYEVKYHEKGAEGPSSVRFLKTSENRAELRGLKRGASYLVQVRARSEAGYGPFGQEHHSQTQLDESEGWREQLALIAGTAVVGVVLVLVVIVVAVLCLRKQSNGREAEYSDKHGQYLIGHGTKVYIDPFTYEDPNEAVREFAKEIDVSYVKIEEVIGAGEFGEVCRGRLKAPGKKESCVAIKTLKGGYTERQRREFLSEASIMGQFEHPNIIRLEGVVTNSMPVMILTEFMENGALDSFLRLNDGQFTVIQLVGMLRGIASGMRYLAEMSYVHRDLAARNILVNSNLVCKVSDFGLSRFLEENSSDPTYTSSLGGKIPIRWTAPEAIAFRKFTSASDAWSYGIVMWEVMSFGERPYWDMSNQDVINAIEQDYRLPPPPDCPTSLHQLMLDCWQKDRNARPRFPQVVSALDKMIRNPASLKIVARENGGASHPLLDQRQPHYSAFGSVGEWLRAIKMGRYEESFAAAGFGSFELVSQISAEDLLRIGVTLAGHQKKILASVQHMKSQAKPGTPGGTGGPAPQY
Method in brief: as §1

Plk3(h) = target: T4, Plk3(h) (Homo sapiens, UniProt Q9H4B4)
T4 construct: purchased Millipore (IC50 Profiler Express service)
Method in brief: as §1

NEK7(h), sequence (Q8TDX7 whole entry): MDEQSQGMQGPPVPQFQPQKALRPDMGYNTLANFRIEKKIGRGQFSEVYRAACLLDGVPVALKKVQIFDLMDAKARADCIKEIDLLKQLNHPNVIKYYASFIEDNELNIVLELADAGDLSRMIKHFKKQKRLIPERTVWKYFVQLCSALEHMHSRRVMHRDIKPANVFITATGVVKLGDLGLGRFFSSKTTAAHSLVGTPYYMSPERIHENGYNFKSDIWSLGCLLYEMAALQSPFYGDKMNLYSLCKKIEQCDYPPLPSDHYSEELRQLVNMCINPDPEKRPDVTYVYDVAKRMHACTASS
T4 sequence (Q9H4B4 whole entry): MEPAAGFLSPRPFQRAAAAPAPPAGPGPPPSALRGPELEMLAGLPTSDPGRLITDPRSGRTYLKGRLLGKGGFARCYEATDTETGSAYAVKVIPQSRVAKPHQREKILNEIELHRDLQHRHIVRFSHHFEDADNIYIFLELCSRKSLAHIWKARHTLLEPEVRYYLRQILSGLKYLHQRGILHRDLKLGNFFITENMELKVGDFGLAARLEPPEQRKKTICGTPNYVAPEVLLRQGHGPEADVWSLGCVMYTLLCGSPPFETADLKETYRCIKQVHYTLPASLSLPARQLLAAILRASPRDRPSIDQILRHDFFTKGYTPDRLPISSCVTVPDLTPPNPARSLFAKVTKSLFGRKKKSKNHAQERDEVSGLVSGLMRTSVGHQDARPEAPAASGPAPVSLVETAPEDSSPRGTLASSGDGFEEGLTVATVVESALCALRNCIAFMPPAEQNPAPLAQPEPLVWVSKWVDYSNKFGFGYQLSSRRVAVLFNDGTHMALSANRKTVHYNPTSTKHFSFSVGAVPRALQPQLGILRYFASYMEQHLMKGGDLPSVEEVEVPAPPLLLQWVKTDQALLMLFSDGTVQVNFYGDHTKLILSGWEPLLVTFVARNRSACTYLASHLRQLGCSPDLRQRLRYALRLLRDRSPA

Sequence	LKB1(h) % activity (LKB1(h))	Txk(h) % activity (Txk(h))	NEK7(h) % activity (NEK7(h))	PKCγ(h) % activity (PKCγ(h))	EphB4(h) % activity (EphB4(h))	Plk3(h) % activity (Plk3(h))
YARAAARQARAKALNRQLGVA (Mammalian) [MMI-0200]	99%	98%	96%	101%	131%	–
HRRIKAWLKKIKALARQLGVAA (Mammalian) [MMI-0500]	51%	10%	89%	6%	38%	122%
KAFAKLAARLYRKALARQLGVAA [MMI-0400]	89%	37%	87%	79%	28%	129%
FAKLAARLYRKALARQLGVAA [MMI-0300]	101%	48%	84%	89%	44%	127%
